Blank lines part the entries; values can stand above or below the sequence they belong to.
Legend:
[1] = molecular target: HLA-B*08:01; test: IEDB peptide-MHC binding, purified MHC/competitive/fluorescence; ≥ and ≤ were set here for values at or beyond the usual limits of such assays
[2] = molecular target: HLA-A*02:01; test: IEDB peptide-MHC binding, purified MHC/competitive/fluorescence; filed as Kd, often an IC50 or EC50 that approximates it; ≥ and ≤ were set here for values at or beyond the usual limits of such assays; conditions: source organism: Human immunodeficiency virus 1
[3] = molecular target: HLA-A*02:03; test: as above
[4] = molecular target: HLA-A*02:06; test: as above
[5] = molecular target: HLA-A*02:11; test: as above
[6] = molecular target: HLA-A*02:12; test: as above
[7] = molecular target: HLA-A*02:16; test: as above; conditions: source organism: Human immunodeficiency virus 1
[8] = molecular target: HLA-A*02:19; test: as above; conditions: source organism: Human immunodeficiency virus 1
[9] = molecular target: HLA-A*69:01; test: as above; conditions: source organism: Human immunodeficiency virus 1
[10] = molecular target: HLA-B*27:05; test: as above
[11] = molecular target: HLA-A*03:01; test: IEDB peptide-MHC binding, purified MHC/competitive/fluorescence; ≥ and ≤ were set here for values at or beyond the usual limits of such assays; conditions: source organism: Vaccinia virus Copenhagen
[12] = molecular target: HLA-A*11:01; test: as above; conditions: source organism: Vaccinia virus Copenhagen
[13] = molecular target: HLA-A*24:02; test: as above
[14] = molecular target: HLA-A*01:01; test: IEDB peptide-MHC binding, purified MHC/direct/fluorescence; filed as Kd, often an IC50 or EC50 that approximates it; ≥ and ≤ were set here for values at or beyond the usual limits of such assays; conditions: source organism: Camelpox virus M-96
[15] = molecular target: HLA-A*02:01; test: as above
[16] = molecular target: HLA-A*11:01; test: as above; conditions: source organism: Variola virus
[17] = molecular target: HLA-A*26:01; test: as above; conditions: source organism: Camelpox virus M-96
[18] = molecular target: HLA-A*31:01; test: as above; conditions: source organism: Camelpox virus M-96
[19] = molecular target: HLA-A*69:01; test: as above
[20] = molecular target: HLA-B*08:02; test: as above; conditions: source organism: Variola virus
[21] = molecular target: HLA-B*27:05; test: as above; conditions: source organism: Camelpox virus M-96
[22] = molecular target: HLA-B*40:01; test: as above; conditions: source organism: Camelpox virus M-96
[23] = molecular target: HLA-B*48:01; test: as above; conditions: source organism: Camelpox virus M-96
[24] = molecular target: HLA-B*58:01; test: as above
[25] = molecular target: HLA-A*03:01; test: IEDB peptide-MHC binding, purified MHC/competitive/fluorescence; filed as Kd, often an IC50 or EC50 that approximates it; ≥ and ≤ were set here for values at or beyond the usual limits of such assays; conditions: source organism: Vaccinia virus WR
[26] = molecular target: HLA-A*30:01; test: as above
[27] = molecular target: HLA-B*15:01; test: as above
[28] = molecular target: HLA-B*15:17; test: as above
[29] = molecular target: HLA-B*35:01; test: as above; conditions: source organism: Vaccinia virus WR
[30] = molecular target: HLA-B*57:01; test: as above; conditions: source organism: Vaccinia virus WR
[31] = molecular target: HLA-A*32:01; test: IEDB peptide-MHC binding, purified MHC/competitive/radioactivity; filed as Kd, often an IC50 or EC50 that approximates it; ≥ and ≤ were set here for values at or beyond the usual limits of such assays; conditions: source organism: Vaccinia virus WR
[32] = molecular target: HLA-B*15:01; test: IEDB peptide-MHC binding, purified MHC/direct/fluorescence; filed as Kd, often an IC50 or EC50 that approximates it; ≥ and ≤ were set here for values at or beyond the usual limits of such assays; conditions: source organism: Haemophilus influenzae
[33] = molecular target: HLA-A*01:01; test: IEDB peptide-MHC binding, purified MHC/competitive/fluorescence; filed as Kd, often an IC50 or EC50 that approximates it; ≥ and ≤ were set here for values at or beyond the usual limits of such assays; conditions: source organism: Human immunodeficiency virus 1
[34] = molecular target: HLA-A*11:01; test: as above; conditions: source organism: Human immunodeficiency virus 1
[35] = molecular target: HLA-A*26:02; test: as above; conditions: source organism: Human immunodeficiency virus 1
[36] = molecular target: HLA-B*18:01; test: as above; conditions: source organism: Human immunodeficiency virus 1
[37] = molecular target: HLA-A*02:11; test: IEDB peptide-MHC binding, purified MHC/direct/fluorescence; filed as Kd, often an IC50 or EC50 that approximates it; ≥ and ≤ were set here for values at or beyond the usual limits of such assays; conditions: source organism: Orthohantavirus hantanense
[38] = molecular target: HLA-A*02:12; test: as above; conditions: source organism: Orthohantavirus hantanense
[39] = molecular target: HLA-B*15:01; test: IEDB peptide-MHC binding, purified MHC/competitive/fluorescence; ≥ and ≤ were set here for values at or beyond the usual limits of such assays; conditions: source organism: Vaccinia virus
[40] = source organism: Vaccinia virus WR
[41] = source organism: Human immunodeficiency virus 1
[42] = source organism: Vaccinia virus Copenhagen
[43] = source organism: Camelpox virus M-96
[44] = source organism: Haemophilus influenzae
[45] = source organism: Haemophilus influenzae 3655
[46] = source organism: Vaccinia virus

Sequence: DIKASNIVL
IC50 [1, 40]: ≥ 266000 nM

Sequence: GLGQHIYET
Kd [2]: 3680 nM
Kd [3, 41]: 41 nM
Kd [4, 41]: 119 nM
Kd [5, 41]: 9.55 nM
Kd [6, 41]: 75.5 nM
Kd [7]: 2.03 nM
Kd [8]: 771 nM
Kd [9]: ≥ 20000 nM

Sequence: GRAGVVPRY
Kd ([10]; source organism: Mycobacterium tuberculosis variant bovis BCG str. Pasteur 1173P2): 230 nM

Sequence: ITFALKKLI
IC50 [11]: 60800 nM
IC50 [12]: 57700 nM
IC50 [13, 42]: 2300 nM
IC50 [1, 42]: ≥ 210000 nM

Sequence: ITMVNSLTY
Kd [14]: 37.1 nM
Kd [15, 43]: ≥ 20000 nM
Kd [16]: 12 nM
Kd [17]: 258 nM
Kd [18]: ≥ 20000 nM
Kd [19, 43]: ≥ 20000 nM
Kd [20]: ≥ 20000 nM
Kd [21]: ≥ 20000 nM
Kd [22]: ≥ 20000 nM
Kd [23]: ≥ 20000 nM
Kd ([24]; source organism: Variola virus): 13 nM
Kd [25]: 39 nM
Kd [26, 40]: ≥ 20000 nM
Kd [27, 40]: 228 nM
Kd [28, 40]: 4.1 nM
Kd [29]: 290 nM
Kd [30]: 257 nM
Kd [31]: 95.7 nM

Kd ([10]; source organism: Escherichia coli 536): 114 nM
Sequence: KRYLQAKSE

Kd [15, 44]: 29.5 nM
Kd [19, 44]: 1720 nM
Kd [32]: 2000 nM
Kd [24, 44]: 367 nM
Kd [3, 45]: ≤ 0.1 nM
Kd [4, 45]: ≤ 0.1 nM
Kd [5, 45]: ≤ 0.1 nM
Kd [6, 45]: 1.15 nM
Sequence: LMTAISQGI

Sequence: NRYGLPEKM
Kd ([10]; source organism: Bacillus anthracis str. A0488): 17.5 nM

Sequence: RSLFNTIAVLY
Kd [33]: ≥ 20000 nM
Kd [3, 41]: 356 nM
Kd [4, 41]: 676 nM
Kd [34]: ≥ 20000 nM
Kd [35]: 1350 nM
Kd [26, 41]: ≥ 20000 nM
Kd [27, 41]: 3660 nM
Kd [28, 41]: 92.3 nM
Kd [36]: 1490 nM

Sequence: TRVLKPSVI
IC50 [1, 40]: ≥ 187000 nM

Sequence: WLIEPCKLL
Kd ([15]; source organism: Orthohantavirus hantanense): 24.3 nM
Kd [37]: 5 nM
Kd [38]: 139 nM

Sequence: YRIWLEQNK
Kd ([10]; source organism: Mycobacterium tuberculosis C): 82.5 nM

Sequence: YSKDSRNKL
IC50 [13, 46]: 19700 nM
IC50 [1, 46]: ≥ 77100 nM
IC50 [39]: ≥ 255000 nM
